For this assay, the target named is GLP-1 receptor (GLP-1R) on CHO DG44 2-A4-2-A8 cells. Nature of the assay: cell-based or functional assay.

Consider one substance from US20200109182A1, “GLP-1 ANALOG FUSION PROTEIN AND PREPARATION METHOD AND APPLICATION THEREOF” (JIANGSU T-MAB BIOPHARMA CO., LTD, priority 2013, published 2020).

“GLP-1 (7-37) (Val^8-GLP-1 (7-37)) (from UniProt P01275 27-57) (peptide)” showed an EC50 (CRE-luciferase reporter, test NO. 1) of 750 pM; an EC50 (CRE-luciferase reporter, test NO. 2) of 368 pM; an EC50 (CRE-luciferase reporter, test NO. 3) of 364 pM.
